Test results from patent publication US20150315289A1 (published 2015).
Positions of bridges follow the written chain, without caps; N, C: chain ends. No end group written: not given here.

T1: cyclic phage-display peptide ACPEWWGTTC (disulfide 2-10)
T1 peptide: ACPEWWGTTC

T2: linear phage-display peptide WTWNITKAYPLP
T2 peptide: WTWNITKAYPLP

T3: linear phage-display peptide WTWNITKEYPQP
T3 peptide: WTWNITKEYPQP


How the values were obtained:
[1] = molecular target: T1, cyclic phage-display peptide ACPEWWGTTC; assay: phage-displayed peptide immunoreactivity, against the linear peptide
[2] = molecular target: T2, linear phage-display peptide …; assay: phage-displayed peptide screen with hPAM4 and mPAM4
Excerpt: (§1) The first was a linear peptide library consisting of 12 amino acid sequences and the second was a cyclic peptide consisting of 7 amino acid sequences cyclized by a disulfide bridge.

[3] = molecular target: T3, linear phage-display peptide …; assay: degenerate phage library panned and screened as before (hPAM4 and mPAM4)
Excerpt: as §1

MUC17 = MUC17 (UniProt Q685J3 26-4493); assay: immunofluorescence co-localisation on human carcinoma cell lines (data not shown)

Row | immunoreactivity relative to the linear sequence [1] | Binder | binding result [2] | binding result [3] | binding result (MUC17)
1 | ~10% | murine PAM4 (mPAM4) (antibody, V domains shown, also called MAb PAM4; mAb-PAM4) VH: EVQLQESGPELVKPGASVKMSCKASGYTFPSYVLHWVKQKPGQGLEWIGYINPYNDGTQYNEKFKGKATLTSDKSSSTAYMELSRLTSEDSAVYYCARGFGGSYGFAYWGQGTLITVSA VL: DIVMTQSPAIMSASPGEKVTMTCSASSSVSSSYLYWYQQKPGSSPKLWIYSTSNLASGVPARFSGSGSGTSYSLTISSMEAEDAASYFCHQWNRYPYTFGGGTKLEIK | binds | binds | –
2 | – | humanized PAM4 (hPAM4) IgG (antibody, V domains shown, humanized IgG1 kappa; used HRP-conjugated in some ELISAs and blots; also called clivatuzumab; HRP-hPAM4) VH: QVQLQQSGAEVKKPGASVKVSCEASGYTFPSYVLHWVKQAPGQGLEWIGYINPYNDGTQYNEKFKGKATLTRDTSINTAYMELSRLRSDDTAVYYCARGFGGSYGFAYWGQGTLVTVSS VL: DIQLTQSPSSLSASVGDRVTMTCSASSSVSSSYLYWYQQKPGKAPKLWIYSTSNLASGVPARFSGSGSGTDFTLTISSLQPEDSASYFCHQWNRYPYTFGGGTRLEIKR | binds | binds | no binding
